These results are taken from patent publication US20240034774A1 (Gilead, published 2024).

Positions count from the first letter of the chain named.

B1: Antibody A-1 (antibody, human IgG1, kappa)
heavy: QVQLLQSGAAVTKPGASVRVSCEASGYNIRDYFIHWWRQAPGQGLQWVGWINPKTGQPNNPRQFQGRVSLTRHASWDFDTFSFYMDLKALRSDDTAVYFCARQRSDYWDFDVWGSGTQVTVSSASTKGPSVFPLAPSSKSTSGGTAALGCLVKDYFPEPVTVSWNSGALTSGVHTFPAVLQSSGLYSLSSVVTVPSSSLGTQTYICNVNHKPSNTKVDKKVEPKSCDKTHTCPPCPAPELLAGPDVFLFPPKPKDTLMISRTPEVTCVVVDVSHEDPEVKFNWYVDGVEVHNAKTKPREEQYNSTYRVVSVLTVLHQDWLNGKEYKCKVSNKALPLPEEKTISKAKGQPREPQVYTLPPSREEMTKNQVSLTCLVKGFYPSDIAVEWESNGQPENNYKTTPPVLDSDGSFFLYSKLTVDKSRWQQGNVFSCSVLHEALHSHYTQKSLSLSPGK
light: DIQMTQSPSSLSASVGDTVTITCQANGYLNWYQQRRGKAPKLLIYDGSKLERGVPSRFSGRRWGQEYNLTINNLQPEDIATYFCQVYEFVVPGTRLDLKRTVAAPSVFIFPPSDEQLKSGTASVVCLLNNFYPREAKVQWKVDNALQSGNSQESVTEQDSKDSTYSLSSTLTLSKADYEKHKVYACEVTHQGLSSPVTKSFNRGEC
B2: 1.1.6-1 (antibody, human IgG1, kappa)
heavy: B1 heavy
light: B1 light with G47A
B3: 1.1.7-1 (antibody, human IgG1, kappa)
heavy: B1 heavy
light: B1 light with K49N
B4: 1.1.16-1 (antibody, human IgG1, kappa)
heavy: B1 heavy
light: B1 light with V91G
B5: 1.1.25-1 (antibody, human IgG1, kappa)
heavy: B1 heavy
light: B1 light with R95N, L96V
B6: 1.1.8-1 (antibody, human IgG1, kappa)
heavy: B1 heavy
light: B1 light with G47A, K49N
B7: 1.1.20-1 (antibody, human IgG1, kappa)
heavy: B1 heavy
light: B1 light with R95N
B8: 1.1.10-1 (antibody, human IgG1, kappa)
heavy: B1 heavy
light: B1 light with N68T
B9: 1.1.17-1 (antibody, human IgG1, kappa)
heavy: B1 heavy
light: B1 light with V90F, V91G
B10: 1.1.19-1 (antibody, human IgG1, kappa)
heavy: B1 heavy
light: B1 light with V91T
B11: 1.1.22-1 (antibody, human IgG1, kappa)
heavy: B1 heavy
light: B1 light with V91S, R95N
B12: 1.1.4-1 (antibody, human IgG1, kappa)
heavy: B1 heavy
light: B1 light with T18R
B13: 1.1.5-1 (antibody, human IgG1, kappa)
heavy: B1 heavy
light: B1 light with R35K, R36P
B14: 1.1.24-1 (antibody, human IgG1, kappa)
heavy: B1 heavy
light: B1 light with L96V
B15: 1.1.18-1 (antibody, human IgG1, kappa)
heavy: B1 heavy
light: B1 light with V91S
B16: 1.1.12-1 (antibody, human IgG1, kappa)
heavy: B1 heavy
light: B1 light with N72S, N73S
B17: 1.1.21-1 (antibody, human IgG1, kappa)
heavy: B1 heavy
light: B1 light with V91G, R95N
B18: 1.1.13-1 (antibody, human IgG1, kappa)
heavy: B1 heavy
light: B1 light with R61S, N68T, N72S, N73S
B19: 1.1.11-1 (antibody, human IgG1, kappa)
heavy: B1 heavy
light: B1 light with R61S, N68T
B20: 1.1.9-1 (antibody, human IgG1, kappa)
heavy: B1 heavy
light: B1 light with R52T
B21: 1.1.3-1 (antibody, human IgG1, kappa)
heavy: B1 heavy
light: B1 light with D1E
B22: 1.1.15-1 (antibody, human IgG1, kappa)
heavy: B1 heavy
light: B1 light with V90F
B23: 1.1.23-1 (antibody, human IgG1, kappa)
heavy: B1 heavy
light: B1 light with V91T, R95N
B24: 1.36.1-1 (antibody, human IgG1, kappa)
heavy: QVQLVQSGAEVKKPGASVRVSCKASGYNIRDYFMHWWRQAPGQGLQWVGWINPKTGQPNNPRQFQGRVTMTRHASWDFDTFSAYMDLSRLRSDDTATYFCARQRTDYWDFDVWGQGTMVTVSSASTKGPSVFPLAPSSKSTSGGTAALGCLVKDYFPEPVTVSWNSGALTSGVHTFPAVLQSSGLYSLSSVVTVPSSSLGTQTYICNVNHKPSNTKVDKKVEPKSCDKTHTCPPCPAPELLAGPDVFLFPPKPKDTLMISRTPEVTCVVVDVSHEDPEVKFNWYVDGVEVHNAKTKPREEQYNSTYRVVSVLTVLHQDWLNGKEYKCKVSNKALPLPEEKTISKAKGQPREPQVYTLPPSREEMTKNQVSLTCLVKGFYPSDIAVEWESNGQPENNYKTTPPVLDSDGSFFLYSKLTVDKSRWQQGNVFSCSVLHEALHSHYTQKSLSLSPGK
light: B1 light

One assay addresses BSA (UniProt P02769 25-607). In words: single-point ELISA, BSA control. A general note: In an ELISA, binding on a coated surface is turned into a signal by an enzyme label.
On to B1, for which the “ELISA A450” value was determined as 0.06 A450.
B2: the “ELISA A450” value was 0.07 A450.
On the same count and under the same terms, then B3, with 0.06 A450; and B4, with 0.06 A450; and B5, with 0.07 A450.
Still for that read-out and setting: then B6, with 0.06 A450; and B7, with 0.07 A450; and B8, with 0.06 A450.
The same measure, in the same setting: the result for B9 reads 0.06 A450; that for B10, 0.06 A450; that for B11, 0.06 A450.
B12: the “ELISA A450” value amounted to 0.06 A450.
On the same count and under the same terms, the result for B13 reads 0.06 A450; that for B14, 0.06 A450.
Same read-out and setting: the result for B15 reads 0.06 A450; that for B16, 0.06 A450.
On to B17, for which the “ELISA A450” value was found to be 0.06 A450.
For the molecule B18, the “ELISA A450” value came to 0.06 A450.
Still for that read-out and setting: then B19, with 0.06 A450; and B20, with 0.07 A450; and B21, with 0.07 A450.
On the same count and under the same terms, then B22, with 0.06 A450.
Consider B23, for which the “ELISA A450” value was 0.06 A450.

A further assay addresses gp120 Bal (HIV (Bal)). In words: single-point ELISA at EC50 conc. of A-1.
Take B1: the “ELISA A450” value turned out to be 0.91 A450.
Turning to B24, the “ELISA A450” value was 1.13 A450.
Same read-out and setting: the result for B2 reads 0.91 A450; that for B3, 0.95 A450.
On the same count and under the same terms, then B4, with 1.06 A450; and B5, with 0.9 A450.
Same read-out and setting: the result for B6 reads 1.01 A450; that for B7, 0.94 A450.
With B8, the “ELISA A450” value is 0.94 A450.
Consider B9, for which the “ELISA A450” value worked out at 1.02 A450.
Same read-out and setting: the result for B10 reads 1.03 A450; that for B11, 0.88 A450.
Turning to B12, the “ELISA A450” value is 0.96 A450.
On the same count and under the same terms, then B13, with 0.9 A450; and B14, with 0.88 A450.
B15: the “ELISA A450” value is 0.92 A450.
For the molecule B16, the “ELISA A450” value came to 1.05 A450.
As for B17, the “ELISA A450” value turned out to be 0.98 A450.
The same measure, in the same setting: then B18, with 0.94 A450; and B19, with 0.92 A450; and B20, with 0.98 A450.
Still for that read-out and setting: then B21, with 0.97 A450; and B22, with 0.93 A450; and B23, with 0.9 A450.

For a further assay, the target named is gp120 SHIV SF162 P3 (SHIV SF162 P3). Put plainly: single-point ELISA at EC50 conc. of A-1.
As for B1, the “ELISA A450” value is 0.94 A450.
B24: the “ELISA A450” value stood at 0.59 A450.
For B2, the “ELISA A450” value came out at 0.41 A450.
As to B3, the “ELISA A450” value stood at 1.02 A450.
Same read-out and setting: then B4, with 1.05 A450.
Regarding B5, the “ELISA A450” value was found to be 1.01 A450.
On the same count and under the same terms, then B6, with 0.37 A450; and B7, with 1.01 A450; and B8, with 1.02 A450.
Regarding B9, the “ELISA A450” value turned out to be 1.07 A450.
For the molecule B10, the “ELISA A450” value is 1.12 A450.
On the same count and under the same terms, then B11, with 1.04 A450; and B12, with 1.07 A450.
For B13, the “ELISA A450” value was 0.93 A450.
B14: the “ELISA A450” value was 0.97 A450.
On the same count and under the same terms, the result for B15 reads 0.94 A450.
On the same count and under the same terms, the result for B16 reads 1.13 A450; that for B17, 1.03 A450.
Turning to B18, the “ELISA A450” value is 0.97 A450.
As for B19, the “ELISA A450” value came to 0.93 A450.
Still for that read-out and setting: the result for B20 reads 1.09 A450; that for B21, 0.97 A450; that for B22, 0.79 A450.
Same read-out and setting: then B23, with 1.07 A450.

A further assay concerns the target gp120 CAAN (HIV (CAAN)). Put plainly: single-point ELISA at EC50 conc. of A-1.
B1: the “ELISA A450” value was 1.06 A450.
B24: the “ELISA A450” value was 0.75 A450.
Regarding B2, the “ELISA A450” value worked out at 0.46 A450.
In the case of B3, the “ELISA A450” value worked out at 1 A450.
Consider B4, for which the “ELISA A450” value stood at 0.99 A450.
On the same count and under the same terms, the result for B5 reads 0.92 A450; that for B6, 0.5 A450; that for B7, 0.95 A450.
Same read-out and setting: then B8, with 1.1 A450; and B9, with 0.9 A450.
As to B10, the “ELISA A450” value worked out at 1.05 A450.
For B11, the “ELISA A450” value is 1.02 A450.
Same read-out and setting: the result for B12 reads 1.09 A450; that for B13, 0.9 A450; that for B14, 0.98 A450.
As to B15, the “ELISA A450” value amounted to 0.92 A450.
For the molecule B16, the “ELISA A450” value was determined as 1.02 A450.
With B17, the “ELISA A450” value turned out to be 0.99 A450.
In the case of B18, the “ELISA A450” value worked out at 1.11 A450.
For B19, the “ELISA A450” value amounted to 1.03 A450.
In the case of B20, the “ELISA A450” value worked out at 0.93 A450.
As for B21, the “ELISA A450” value was 1 A450.
Consider B22, for which the “ELISA A450” value was 0.79 A450.
As for B23, the “ELISA A450” value was determined as 0.95 A450.
